Assay: Thermal aggregation profiles and Tagg by SDS-PAGE
Assay type: physicochemical
Conditions: heat treated separately 30 minutes, 42 to 64° C.
Experimental: After incubation, reactions were stopped by transferring the samples to ice for 10 minutes prior to centrifugation at 18,000 r.p.m. for 20 minutes at 4° C. in a Beckman Coulter (Fullerton, Calif., USA) centrifuge (rotor: F12×8.2). The supernatants (3 or 5 μl) were then analyzed by 10% NEXT-GEL SDS-PAGE (Amresco, Solon, Ohio, USA). The gels were illuminated on a transilluminator at 365 nm followed by Coomassie blue staining. Coomassie-stained protein bands corresponding to Ffold were integrated using ImageJ (see the website at rsbweb.nih.gov/ij/) and plotted against the temperature.
To determine the Tagg at which 50% of proteins were aggregated, the thermal aggregation profile data were fit to the following sigmoid function:
Ffold=1−(1/(1+e^(Tagg-T/c))
where Ffold is the normalized fluorescence intensity at temperature T, and c is the Hill slope factor.
Ffold was then determined by SDS-PAGE. For this experiment, equal amounts of the three proteins were mixed to avoid variations in buffer composition and protein concentrations.
Due to the oligomeric quaternary structure of these proteins, experiments were performed separately to avoid the formation of heterogeneous protein complexes.

B1: GK: tetrameric glycerol kinase from E. coli (protein, UniProt P0A6F3 2-502, looked up)
Glycerol kinase: TEKKYIVALDQGTTSSRAVVMDHDANIISVSQREFEQIYPKPGWVEHDPMEIWATQSSTLVEVLAKADISSDQIAAIGITNQRETTIVWEKETGKPIYNAIVWQCRRTAEICEHLKRDGLEDYIRSNTGLVIDPYFSGTKVKWILDHVEGSRERARRGELLFGTVDTWLIWKMTQGRVHVTDYTNASRTMLFNIHTLDWDDKMLEVLDIPREMLPEVRRSSEVYGQTNIGGKGGTRIPISGIAGDQQAALFGQLCVKEGMAKNTYGTGCFMLMNTGEKAVKSENGLLTTIACGPTGEVNYALEGAVFMAGASIQWLRDEMKLINDAYDSEYFATKVQNTNGVYVVPAFTGLGAPYWDPYARGAIFGLTRGVNANHIIRATLESIAYQTRDVLEAMQADSGIRLHALRVDGGAVANNFLMQFQSDILGTRVERPEVREVTALGAAYLAGLAVGFWQNLDELQEKAVIEREFRPGIETTERNYRYAGWKKAVKRAMAWEEHDE
Tagg: 50.4±0.3 °C

From patent publication US20110129935A1, “PROTEIN STABILITY ASSAY USING A FLUORESCENT REPORTER OF PROTEIN FOLDING” (James Cook University, priority 2008, published 2011)
